Results taken from patent US20200277405A1, “COMPOSITION FOR ANTIBODY-DRUG CONJUGATE DIRECTED AGAINST TUMOR-CELL ASSOCIATED POLYSIALIC ACID” (Cornell University, priority 2019, published 2020).

Tests used:
[1] = test system: ST8SiaII KO SW2 cells; assay: Flow cytometry binding to ST8SiaII knockout cells; format: cell-based, human
Text: FIGS. 8A-8C depict binding of polySia-specific mAb to ST8SiaII and ST8SiaIV knockout cell lines. […] Data are the geometric mean fluorescence intensity (MFI), with the values reported as the average of three replicates and the error represented as the standard deviation of the mean. […] In the ST8SiaII KO SW2 cells, 73% of the population (FL1-H-) binds mo735 below the level of the wild-type SW2 cells. […] In the ST8SiaIV KO SW2 cells, 68% of the population (FL1-H-) binds mo735 below the level of the wild-type SW2 cells.
CRISPR guide RNAs targeting ST8SiaII (crRNA1: […]; SEQ ID NO: 5) and ST8Sia4 (crRNA1: […]; SEQ ID NO: 6) were purchased from Genscript in the pLentiCRISPR v2 vector. Knockout cell lines were generated in SW2 cells using protocols described by Zhang and colleagues (Shalem et al., “Genome-Scale CRISPR-Cas9 Knockout Screening in Human Cells,” Science 343:84-7 (2014), which is hereby incorporated by reference in its entirety). Briefly, after lentiviral transduction, cells were maintained under selection with 1 μg/mL puromycin for at least 14 days prior to analysis by flow cytometry.
Cancer cells were trypsinized and collected with media, followed by three washes in PBS. […] Cells were washed three times, resuspended in 500 μL of 0.5% BSA in PBS, and analyzed on a BD FACSCalibur flow cytometer using Cell Quest Pro software (BD Biosciences).

[2] = test system: cultured neurons; settings: unconjugated antibody; cited from earlier work
[3] = test system: polySia-positive cell line SH-SY5Y; assay: Time course of antibody internalization; format: cell-based, human
Procedure: (§1) FIGS. 10A-10E depict internalization of ch735 into polySia-positive cancer cells. […] Nuclei were stained by Hoescht (blue). Scale bar, 10 Fluorescence intensity was measured across the dotted line and normalized to the maximum value in each channel. Arrows indicate regions of colocalization. […] Nuclei were stained by Hoescht. Scale bar, 10 Fluorescence intensity was measured across the dotted line and normalized to the maximum value in each channel. Arrows indicate regions of colocalization. The inset show only the ch735 and DNA channels of the boxed region. […] Scale bar, 10 Fluorescence intensity was measured across the dotted white line and normalized to the maximum value in each channel. […]
(§2) To calculate percent internalization, pre-chilled cells were incubated with 50 nM ch735 on ice for 1 h and then washed to remove unbound antibodies. […] Cells were fixed in 2% paraformaldehyde for 20 min and then stained with AF488-labeled antibody against human IgG and analyzed by flow cytometry and FlowJo software. Receptor-antibody complex internalization was calculated using the geometric mean as percent fluorescent intensity loss at 37° C. relative to that on ice. For each sample, the geometric mean fluorescence intensity (MFI) of 10,000 cells was measured in triplicate.

[4] = test system: SH-SY5Y cells; assay: Colocalization microscopy, SH-SY5Y; format: cell-based, human; settings: transferrin, LAMP-3, LAMP-1 markers
Procedure: as §1
FIGS. 12A-12C depict colocalization of mo735 with markers that traffic to endolysosomal compartments. […] Following fixation and permeabilization, LAMP-1 antibody was applied and detected with anti-rabbit AF647 secondary. […] Cross-sectional fluorescence profiles are shown at right with normalized pixel intensity for selected cells (marked with box in left confocal panels) versus distance across the cell for representative cross sections (marked with bar in right confocal panels).
SH—SY5Y or SW2 cells were plated at 20,000 cells/cm^2 on poly-L-lysine coated 35 mm glass bottom dishes and adhered overnight. […] The fluorescence intensity of the plot profile was analyzed using FIJI software. […]

[5] = test system: polySia-positive cell lines SH-SY5Y, SW2, H69, and H82; assay: Internalization assay, polySia-positive cell lines; format: cell-based, human; settings: after 1 h at 37° C.; each polySia-positive cell line
Procedure: as §1, §2

[6] = test system: polySia-negative MCF7 cells; assay: Internalization assay, MCF7; format: cell-based, human; settings: after 1 h
Procedure: as §1, §2

Row | Molecule | population (FL1-H-) binding below the level of wild-type SW2 cells [1] | complement-dependent cytotoxicity (CDC) [2] | antibody internalized ([3]; 15 min) | maximum internalization ([3]; reached by 30 min) | compartments of accumulation after internalization (confocal) [4] | antibody internalized [5] | antibody internalization [6]
1 | mo735: well-known mouse-derived IgG2a monoclonal antibody 735 targeting polysialic acid (antibody, V domains shown) VH: QIQLQQSGPELVRPGASVKISCKASGYTFTDYYIHWVKQRPGEGLEWIGWIYPGSGNTKYNEKFKGKATLTVDTSSSTAYMQLSSLTSEDSAVYFCARGGKFAMDYWGQGTSVTVSS VL: DVVMTQTPLSLPVSLGDQASISCRSSQSLVHSNGNTYLYWYLQKPGQSPKPLIYRVSNRFSGVPDRFSGSGSGTDFTLKISRVEAEDLGVYFCFQGTHVPYTFGGGTRLEIK | 73% | only limited complement-dependent cytotoxicity (CDC) |  |  |  |  | 
2 | ch735: chimeric human IgG1 polySia-specific mAb made by swapping variable regions of mouse mAb 735 (antibody, V domains shown) VH: QIQLQQSGPELVRPGASVKISCKASGYTFTDYYIHWVKQRPGEGLEWIGWIYPGSGNTKYNEKFKGKATLTVDTSSSTAYMQLSSLTSEDSAVYFCARGGKFAMDYWGQGTSVTVSS VL: DVVMTQTPLSLPVSLGDQASISCRSSQSLVHSNGNTYLYWYLQKPGQSPKPLIYRVSNRFSGVPDRFSGSGSGTDFTLKISRVEAEDLGVYFCFQGTHVPYTFGGGTRLEIK |  |  | ~30% | 40% | rapidly internalized in endosomal/lysosomal compartments | ~40% | no internalization
